Results on 70 sequences are retold here after the domain aggregation screens of Martell et al. (2025).
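Note: 20 min heating vs room temperature control held 20 min.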

A short description of the series: soluble fraction after stress (log2 fold change); higher = more stays soluble; pooled small domains, quantitative proteomics. To be noted: stress: 75 degC.
Take “HMVPLSPRFFDIFRKRKDLTRQNVDVYFRDHPTEITAFERYIKGLVSQSYIPAERADALLLVASQYKAK”: the “soluble fraction (log2)” value is -1.58.

As to “HMVPSTAVIFTELVSMRSEPATKSPVTHQLTKGTAITINEEKDGWYQVTDQTGNSGWIVKWAVKPTYFTNP”, the “soluble fraction (log2)” value is -0.967.

In the case of “HMVPTYEAYVGKEGLVVGTLRPAGTAEFDGERLDVVSEGEYLEAGTRVQIVRTEGRRIVVRKIN”, the “soluble fraction (log2)” value was -0.275.

“HMVPVVGTTIPHEFIGKFGSARVMLKPAVEGSGVIAGGSARAVLELAGYKDIKTKVLGTNNPRNVVYATMN”: the “soluble fraction (log2)” value was 0.238.

With “HMVQDDDPNSVAKFIDQVIESNPEQVEQYRSGKEKVFNFFLGQTMRLSKGKANPDLVSELLKEKLS”, the “soluble fraction (log2)” value worked out at 0.0209.

Take “HMVQIQDIAFSEFLNELEKGNILDVNIKGDLINGNMLDGKKFKTYAPYDPSLVEKLSKQNVTINVEPVN”: the “soluble fraction (log2)” value came out at 0.109.

In the case of “HMVQMKIRAYELEPNDFFIKQNMTYRVMRIQNGMIYAKHLLNSTPITFGAKSMEFVLWTGKYS”, the “soluble fraction (log2)” value is -2.21.

As to “HMVQQTEEDVIRDMYVEGKIFTIGEEVTDTYTGVTGKIIRRGTNYVTFMSEDGETYKKWLYEIELA”, the “soluble fraction (log2)” value is -0.61.

As for “HMVRDGDTFVVPKMDRFARNVEDTLHLVRELTERGVIFQMGHTVYDPHDPWSKLFLTFLAAIAEA”, the “soluble fraction (log2)” value amounted to 0.0785.

With “HMVREVGYNAFLAMLDSGAVKEVARDESEGQITFLATDEKGKERVYKTGIWPDDTLTERLNTAGVEFA”, the “soluble fraction (log2)” value stood at 0.351.

Take “HMVREVSYDQFLHFVEAKQVGMVYQDGESLMFTLKEDVEKEWGVTAYKTGLWPDANLTDRLLDAGVVFS”: the “soluble fraction (log2)” value is -2.32.

As to “HMVRGNLAEELLKLREEEGISFQEAGARSGIARSTISQVVNQGLRLKPNQEESLWRVIEEVRGVKER”, the “soluble fraction (log2)” value was found to be 0.0321.

As for “HMVRSEDLIGLQGRITLATDVETRGFVELSVKGSLLRRPALSLKGPLAKNTAVVVTASNDHTLEVEAL”, the “soluble fraction (log2)” value is -0.985.

As to “HMVRSKLEIVPVPEDAVVKIAGLKRLTYQAYQNEDVPYMVYKNGYEAQSGTVFMDTDKTLTVTLEESP”, the “soluble fraction (log2)” value was -0.0399.

In the case of “HMVSAMLLHKKEILNLLAEEPEALHFASLLRAFGGRHIKNELKQIVDDLVRSGEILRLRGNRYTLPGADN”, the “soluble fraction (log2)” value is -1.5.

Regarding “HMVSATKAFVNGGNIVVSSPKATRVAVYNVAGQKVAEQAFAGKATIKASDFAKGIYVLKFNDNTVLKLT”, the “soluble fraction (log2)” value was -0.955.

In the case of “HMVSDAELTSQATTAITAYPGTSVEVKEGQAHLSGTFATEADKQAAIDALKKIQDVKDVHDMATV”, the “soluble fraction (log2)” value worked out at 0.152.

Regarding “HMVSDSAELSAFVADVIKENAQAVADYKGGKTNVFGWLMGQIIKKSGGKATPAAAAALLKAELEK”, the “soluble fraction (log2)” value is -0.0308.

As for “HMVSKQVTVNGIQYYQYTVQKSEGFYAISTKFGVTQDDIILANPSTKEGLRVGQEILIPIKT”, the “soluble fraction (log2)” value is -2.62.

For “HMVSLLDWAYKQVRRMLFSGDLPQGQKIVVAQLANQLSISPTPVKEALNRLAVEGLLEAVPRRGFQVR”, the “soluble fraction (log2)” value was -0.548.

As to “HMVSQELIMLGNRIREYRKERGFSQEILAEKSGVSTNTISRIEGGQMAMSVGILQRIVKALGVDANVMLG”, the “soluble fraction (log2)” value was -2.32.

Take “HMVSQKPKERELWFREQLELAGLRLDPHAISAINETLGNDTGRFPGIIDTLLSTYGAGKKLSYDDVVMFL”: the “soluble fraction (log2)” value was -0.638.

As to “HMVSRAFEEETVKRAESGNQEAALFALELAIREIEHSYEKSKIIDYFVSKVRLFLDNGVSLERALGIH”, the “soluble fraction (log2)” value is 0.196.

“HMVSRKIENPYWANKEKQHIIAEFFYPDTNKRVTASIMNDGSNRDYEEILRGYSIEQIDANTNRRLEER”: the “soluble fraction (log2)” value came out at 0.566.

Turning to “HMVSSEGLASGIERMLVEFGLETDKGRRFAMWSLLYMLGSAPDLDVAFKDPRDREAARTFMDLLDQANA”, the “soluble fraction (log2)” value is -1.57.

“HMVSSVAAISQMIDEKDRYTSEHSHRVAEYARLIGAHMGFAGEELDSLYRSALLHDIGKIAVPDAILNK”: the “soluble fraction (log2)” value is -0.627.

On to “HMVSTDPVHLFNLGTANRRAGRASEAITSYRKFMEAAPQHPQVPEARAYIHDMEVLLQERQKSEQAASQLS”, for which the “soluble fraction (log2)” value amounted to 0.143.

Regarding “HMVSTSVTVTGDLNVRADSRADSDLVGALIPGQTVTRLAVLDNGWSKIRFDDGAGTVVEGYVLSEYLQADG”, the “soluble fraction (log2)” value was 0.335.

As to “HMVSVEINTVERDETFRKMFTSGWKPENRIQALAVEQAKKNGLGRMSEVAGLASFRGIWKQATEQVALEA”, the “soluble fraction (log2)” value is -0.213.

“HMVSVLDHIVGIGAKRRQSLWNHFGTIDKIKAASIDELLKAPGMNRPSAEAVYYFFEAQRQLRGK”: the “soluble fraction (log2)” value was -1.22.

For “HMVTEKNALTIEIEDLTKRFGNQRESLLPILQEVQLKHGHISDFAQQEIARLLDIHPVEVYGVVTFFSFLS”, the “soluble fraction (log2)” value was -3.

Regarding “HMVTGSIYERKGIYYAIVSYYVDGRRKQKSVSTGLSVKGNKRRALEFLENLKRTYETKESMENMD”, the “soluble fraction (log2)” value was -3.79.

Turning to “HMVTIEEMMDRLLTRVQRAVNMSFSEFSGEAKEKVEVIVSFLALLELVKQGAVDVLQHENFSDIRIENT”, the “soluble fraction (log2)” value was -0.661.

As for “HMVTKQKKLVLTIIERSHGHLSAEEIFFRAREEMPNIALGTVYRNLNSLTEEGIVRRITLPGTSDRFDT”, the “soluble fraction (log2)” value is -2.91.

For “HMVTKTTYAYERLKREIMDGTLGQGEKLVVNAISQRYQVSPMPIREALLKLEQEGLVQSAPHRGAWVHK”, the “soluble fraction (log2)” value is -0.776.

For the sequence “HMVTNELFGTRLRAFRKEKGLTIEQLAERVGLSPNYLGDIERGKKLPSMATFIRLVNELDISADEL”, the “soluble fraction (log2)” value is -1.52.

Regarding “HMVTQVDYGTFLTRIDEGKVKSVEIQDNQIAFTAIDEAGKENIYVTGKVNDPELVDRLLAADIEDFSQVIP”, the “soluble fraction (log2)” value came to 0.0911.

For “HMVTTTEAAKMLLVNAGHDVIKDGLTGASWASNTMKLADADGLLASVATKPNDALPRQYAAQMIYN”, the “soluble fraction (log2)” value was found to be 0.103.

For the sequence “HMVVANTAIKSELQNIVANENKQAPLSDQKIVDQLKQAGFDISRRTVVKYRDALGIPTSRNRKR”, the “soluble fraction (log2)” value was -0.28.

On to “HMVVEGMQFDRGYLSQYMVTDNEKMVADLENPYILITDKKISNIQEILPLLESILQSSRPLLIIADD”, for which the “soluble fraction (log2)” value was -0.0369.

Regarding “HMVVGYRYVTNVANAVNFRQKPSASSTIITTIPYGTRIGYVEDANSEYARVKYDNMYGYVAKFYLSNYSPP”, the “soluble fraction (log2)” value is -3.68.

As for “HMVVLNQEQIKFIDHYLQVSKVRYVDVRSELTDHIATAVELKMQDEALDFYEAFKAFIAVNKSQLLQRN”, the “soluble fraction (log2)” value was -1.06.

Regarding “HMVVNERIKKLRRSLDLTQQEFADRIGVKRNTIANYEIGRNEPIDSVLELIVREFGVSKQWLLDGTGEMF”, the “soluble fraction (log2)” value is -1.43.

Regarding “HMVVPRSFKYEVLAHGGWAGNAQRYQTKEEALHAGLALSRRWTAVEDYRAVPSDDLPNQPAL”, the “soluble fraction (log2)” value is -0.231.

For “HMVVPSNPDELKGSFSLAEVASGYGLEVAAILEKAGWPADTDPNVKMRDAANAIGRDSTDIRNAVKALLKS”, the “soluble fraction (log2)” value was found to be 0.156.

Turning to “HMVVVPPPATPKPGDVTGDNKINGYDLSILLSNWKRPGATLAQGDLNKDGVVNGLDLSIMLLNWG”, the “soluble fraction (log2)” value stood at 0.274.

Turning to “HMVVYDAELLLNINPGMSYEEVKEMLGDPGMIIAGNDAENSVYRWSTGGISFMGRFENGALIRKSIISP”, the “soluble fraction (log2)” value is -0.862.

As to “HMVWNVEQIKRAVDQLPDGYRVVFTLYLFEGYDHREIADILGISEGGSKSQFNRAKSKLKEILTAMS”, the “soluble fraction (log2)” value was -2.19.

For the sequence “HMVWTAGEVVERIRERVGHPATIRELMQVLTIPPEDRHRFRRRIMQLVEAGELIRIRGNRYGLAD”, the “soluble fraction (log2)” value is -2.59.

As to “HMVYNGYYAKSFNGYVVILNGDEKTVYEYTQIPIHLLPEDIRSSVMSGYYLENETDLYNFLENYS”, the “soluble fraction (log2)” value was -3.24.

As for “HMWAVDFVLLDKDDQRIGNAVAYRDDRTKGMDEEVYRTVPEEELYASTGIQKQIFNSIYQLMAWKK”, the “soluble fraction (log2)” value is -0.0106.

With “HMWDRFGELDSAEEINRIAAAELREGDIDALKVLAEENGLDKDDVEDYIDRLIDELTTPELAAIGKLDV”, the “soluble fraction (log2)” value was determined as 0.275.

As to “HMWKQISSEAELLPAVRSVIQANPGEAEKLRNGEMAPLEFLTGLVMKKTNGMAVPQIVKTLIKKELKI”, the “soluble fraction (log2)” value was found to be 0.0414.

Turning to “HMWKSEAGKKIIESLAQKYNKSNAQIILRWHIQMGYIVIPGARSENHIKENINIFDFKLTNEEINNILKLN”, the “soluble fraction (log2)” value is -0.242.

With “HMWMTAQDFRNSSLPWSATTSYNEGQSVRVVDGSNTYYYIAIVKTQPGQSPTTHPTSWREVDA”, the “soluble fraction (log2)” value was -1.16.

“HMWNLPDPVVRPEGNVTVYENFKNTVEVLNREADLVLKFLQNEFGTSANIDDTGRARLTGSFSTDRVSSVI”: the “soluble fraction (log2)” value was -0.328.

With “HMWSNTAVIDRIRQLHEEGQPISSQSVQVNHKSLYMAAIKRFRGWKRAVEAAGIDYRQIRLR”, the “soluble fraction (log2)” value was -2.29.

“HMWWTPIILRDALFGVQRFEDFQKNLDVSRATLSSRLTRLVDEGLMEKVEYQQHPVRHEYVLTEKGR”: the “soluble fraction (log2)” value is -0.234.

For the sequence “HMYAGTWTTESGQWKYRQDDGTYAKGWLQDTDGRWYYFDANGRMLSNTATPDGYQVGEDGAWVNH”, the “soluble fraction (log2)” value was -0.338.

With “HMYAMTAEDWIVSGNRKYINDDLQGAIADYTKAIEIDPNYAAIYLVRGKAKYELKNYQGAIEDYTKAIE”, the “soluble fraction (log2)” value is -1.29.

As for “HMYAPKIETIQVPQDKIREVIGTGGKVIREIVETTGAKIDIGDTGLIKVASSDGEAIRAALDWINSIVAE”, the “soluble fraction (log2)” value is 0.278.

HMYATQLLQLEEMGFFDRAENIRALRATNGNVNAAVERL: the “soluble fraction (log2)” value is -0.202.

Regarding “HMYDASELNKALEEAKKLDLNNYTEESSEALKNAISKAEEALLSKDKETINSALEELNKAMDSL”, the “soluble fraction (log2)” value was found to be 0.512.

Regarding “HMYDEAAIRKAVMTFVTDNRDERLDLAKISAVLTSKFGNINFDELGYKRFSSFIDSFPELRRNNTFVSLR”, the “soluble fraction (log2)” value was -0.883.

“HMYDFGVILQKLRKEKGFTQEQLARLIHKESSIISRYEKGLQNPTFETVKEFAAIFNVSMDYLAG”: the “soluble fraction (log2)” value is -1.49.

In the case of “HMYEGNEFSSTGMFREDILAITAVHPMREDAVTELLARSNESEETLEMMIDEELLRRVAYGNHNYYMRRFR”, the “soluble fraction (log2)” value was -0.611.

Consider “HMYEHLKALRESLGMTQAEFGESVGVAKSTYNNYEIGARDPKSDFWIAVAQRYGVTIDYLMGFSDDPKKT”, for which the “soluble fraction (log2)” value is -1.76.

With “HMYELSDTEWKIIEQVGLGASNKEIAASLHFSEGTIRNYLSVILDKLSLRDRTQLAILYVKMN”, the “soluble fraction (log2)” value is -1.11.

In the case of “HMYEPPTEDEKRVLSLLATRESIVRSDVDRLLGVSQSTANRILKQMIEKYLISQEGTGKNTKYIK”, the “soluble fraction (log2)” value was -0.263.

As for “HMYESAMSDLHARIMSSDDPHGEIYKMLTQSGPEAKYIQDMYNETSIDRGLHPDDDFEDIIDAMVAELDD”, the “soluble fraction (log2)” value was -0.68.
